Legend:
[1] = biological target: T1, swine (Microminipig) CD4.A expressed on transfected HEK293 cells (Sus scrofa, Microminipig, allele CD4.A, UniProt A0A0M3VH80, strain); assay: flow cytometry on cells; HEK293 transfected with CD4.A or CD4.B (mVenus co-expressed) stained with hybridoma clone supernatant, then anti-mouse IgG-APC; settings: partners not purified
T1 construct: CD4 allele CD4.A of the Microminipig; also called CD4.A transfectant; source: HEK293, transfected (S/MAR episomal vector, mVenus co-expressed), on cells

[2] = biological target: T2, swine (Microminipig) CD4.B expressed on transfected HEK293 cells (Sus scrofa, Microminipig, allele CD4.B, UniProt A0A0M4UHP2, strain); assay: as above; settings: partners not purified
T2 construct: CD4 allele CD4.B of the Microminipig; five replacements between the alleles are printed (T61I, G65R, G66S, G68R, T73K); also called CD4.B transfectant; source: HEK293, transfected (S/MAR episomal vector, mVenus co-expressed), on cells

[3] = biological target: T3, CD4.A, endogenous in CD4.A (+/+) Microminipig cells (Sus scrofa, Microminipig, allele CD4.A …, UniProt A0A0M3VH80, strain); assay: flow cytometry on cells; CD4.A (+/+) and CD4.B (+/+) swine PBMCs stained with the purified mAb and anti-mouse IgG-APC (b1D7) or anti-mouse IgG2a-FITC (x1E10); lymphocyte gate; isotype control; settings: one partner purified
T3 construct: CD4 allele CD4.A of the Microminipig, as in animals genotyped CD4.A (+/+) by PCR-RFLP; allele mRNA LC064059; also called CD4.A (+/+) swine PBMCs; CD4.A (+/+) spleen; source: endogenous, CD4.A (+/+) Microminipig PBMCs and spleen tissue sections

[4] = biological target: T4, CD4.B, endogenous in CD4.B (+/+) Microminipig cells (Sus scrofa, Microminipig, allele CD4.B …, UniProt A0A0M4UHP2, strain); assay: as above; settings: one partner purified
T4 construct: CD4 allele CD4.B of the Microminipig, as in animals genotyped CD4.B (+/+) by PCR-RFLP; allele mRNA LC064060; also called CD4.B (+/+) swine PBMCs; CD4.B (+/+) spleen; source: endogenous, CD4.B (+/+) Microminipig PBMCs and spleen tissue sections

[5] = biological target: T1, swine (Microminipig) CD4.A expressed on …; assay: flow cytometry on cells; HEK293 transfected with CD4.A or CD4.B stained with biotinylated x1E10 and streptavidin PE-Cy7; settings: one partner purified
[6] = biological target: T2, swine (Microminipig) CD4.B expressed on …; assay: as above; settings: one partner purified

Measured: binding result

B1: anti-swine CD4.AB mAb x1E10 (antibody, V domains shown)
VH: DVQLQESGPGLVKPSQSLSLTCTVTGYSIISDYAWNWIRQFPGNKMEWMGYILYSGTTNYNPSLKSRISITRDTSKNQFFLQLNSVTTEDTATYYCARRTYYDYDYYGMDYWGQGTSVTVSS
VL: DVLMTQIPLSLPVSLGDQASISCRSSQTIVHSLGNTYLEWYLQKPGQSPKLLIYKVSNRFSGVPDRFIGSGSGTDFTLKITRVEAEDLGVYYCFQGSHVPWTFGGGTKLEIK
notes: IgG2a kappa; also called x1E10 (1C3-1E8); anti-CD4AB mAb; source: mouse hybridoma (BALB/c splenocytes fused with P3-X63-Ag8-U1), clone supernatant; purified mAb
binds: [1] | [2] | [3] | [4]

B2: biotinylated x1E10 mAb (antibody, V domains shown)
VH: DVQLQESGPGLVKPSQSLSLTCTVTGYSIISDYAWNWIRQFPGNKMEWMGYILYSGTTNYNPSLKSRISITRDTSKNQFFLQLNSVTTEDTATYYCARRTYYDYDYYGMDYWGQGTSVTVSS
VL: DVLMTQIPLSLPVSLGDQASISCRSSQTIVHSLGNTYLEWYLQKPGQSPKLLIYKVSNRFSGVPDRFIGSGSGTDFTLKITRVEAEDLGVYYCFQGSHVPWTFGGGTKLEIK
notes: as the heavy chain of m2; as the light chain of m2; IgG2a kappa; same antibody as m2 with a biotin label; also called x1E10 labeled with biotin; source: mouse hybridoma x1E10; biotinylated with Biotin Labeling Kit (Cosmo Bio)
binds: [5] | [6]

Source: publication PMC7688132, “Preparation and characterization of monoclonal antibodies recognizing two CD4 isotypes of Microminipigs” (PLoS ONE, 2020)
